Data taken from US20050089961A1 (NEUROMED PHARMACEUTICALS, published 2005).

Molecular target: rat α1B+β1b calcium channel (N-type calcium channel) (rat, UniProt Q02294 1-2336; P54283 1-597)
Assay: cell-based or functional assay

Sequence of rat α1B+β1b calcium channel (N-type calcium channel) (Q02294 whole entry, chain 1 of 2): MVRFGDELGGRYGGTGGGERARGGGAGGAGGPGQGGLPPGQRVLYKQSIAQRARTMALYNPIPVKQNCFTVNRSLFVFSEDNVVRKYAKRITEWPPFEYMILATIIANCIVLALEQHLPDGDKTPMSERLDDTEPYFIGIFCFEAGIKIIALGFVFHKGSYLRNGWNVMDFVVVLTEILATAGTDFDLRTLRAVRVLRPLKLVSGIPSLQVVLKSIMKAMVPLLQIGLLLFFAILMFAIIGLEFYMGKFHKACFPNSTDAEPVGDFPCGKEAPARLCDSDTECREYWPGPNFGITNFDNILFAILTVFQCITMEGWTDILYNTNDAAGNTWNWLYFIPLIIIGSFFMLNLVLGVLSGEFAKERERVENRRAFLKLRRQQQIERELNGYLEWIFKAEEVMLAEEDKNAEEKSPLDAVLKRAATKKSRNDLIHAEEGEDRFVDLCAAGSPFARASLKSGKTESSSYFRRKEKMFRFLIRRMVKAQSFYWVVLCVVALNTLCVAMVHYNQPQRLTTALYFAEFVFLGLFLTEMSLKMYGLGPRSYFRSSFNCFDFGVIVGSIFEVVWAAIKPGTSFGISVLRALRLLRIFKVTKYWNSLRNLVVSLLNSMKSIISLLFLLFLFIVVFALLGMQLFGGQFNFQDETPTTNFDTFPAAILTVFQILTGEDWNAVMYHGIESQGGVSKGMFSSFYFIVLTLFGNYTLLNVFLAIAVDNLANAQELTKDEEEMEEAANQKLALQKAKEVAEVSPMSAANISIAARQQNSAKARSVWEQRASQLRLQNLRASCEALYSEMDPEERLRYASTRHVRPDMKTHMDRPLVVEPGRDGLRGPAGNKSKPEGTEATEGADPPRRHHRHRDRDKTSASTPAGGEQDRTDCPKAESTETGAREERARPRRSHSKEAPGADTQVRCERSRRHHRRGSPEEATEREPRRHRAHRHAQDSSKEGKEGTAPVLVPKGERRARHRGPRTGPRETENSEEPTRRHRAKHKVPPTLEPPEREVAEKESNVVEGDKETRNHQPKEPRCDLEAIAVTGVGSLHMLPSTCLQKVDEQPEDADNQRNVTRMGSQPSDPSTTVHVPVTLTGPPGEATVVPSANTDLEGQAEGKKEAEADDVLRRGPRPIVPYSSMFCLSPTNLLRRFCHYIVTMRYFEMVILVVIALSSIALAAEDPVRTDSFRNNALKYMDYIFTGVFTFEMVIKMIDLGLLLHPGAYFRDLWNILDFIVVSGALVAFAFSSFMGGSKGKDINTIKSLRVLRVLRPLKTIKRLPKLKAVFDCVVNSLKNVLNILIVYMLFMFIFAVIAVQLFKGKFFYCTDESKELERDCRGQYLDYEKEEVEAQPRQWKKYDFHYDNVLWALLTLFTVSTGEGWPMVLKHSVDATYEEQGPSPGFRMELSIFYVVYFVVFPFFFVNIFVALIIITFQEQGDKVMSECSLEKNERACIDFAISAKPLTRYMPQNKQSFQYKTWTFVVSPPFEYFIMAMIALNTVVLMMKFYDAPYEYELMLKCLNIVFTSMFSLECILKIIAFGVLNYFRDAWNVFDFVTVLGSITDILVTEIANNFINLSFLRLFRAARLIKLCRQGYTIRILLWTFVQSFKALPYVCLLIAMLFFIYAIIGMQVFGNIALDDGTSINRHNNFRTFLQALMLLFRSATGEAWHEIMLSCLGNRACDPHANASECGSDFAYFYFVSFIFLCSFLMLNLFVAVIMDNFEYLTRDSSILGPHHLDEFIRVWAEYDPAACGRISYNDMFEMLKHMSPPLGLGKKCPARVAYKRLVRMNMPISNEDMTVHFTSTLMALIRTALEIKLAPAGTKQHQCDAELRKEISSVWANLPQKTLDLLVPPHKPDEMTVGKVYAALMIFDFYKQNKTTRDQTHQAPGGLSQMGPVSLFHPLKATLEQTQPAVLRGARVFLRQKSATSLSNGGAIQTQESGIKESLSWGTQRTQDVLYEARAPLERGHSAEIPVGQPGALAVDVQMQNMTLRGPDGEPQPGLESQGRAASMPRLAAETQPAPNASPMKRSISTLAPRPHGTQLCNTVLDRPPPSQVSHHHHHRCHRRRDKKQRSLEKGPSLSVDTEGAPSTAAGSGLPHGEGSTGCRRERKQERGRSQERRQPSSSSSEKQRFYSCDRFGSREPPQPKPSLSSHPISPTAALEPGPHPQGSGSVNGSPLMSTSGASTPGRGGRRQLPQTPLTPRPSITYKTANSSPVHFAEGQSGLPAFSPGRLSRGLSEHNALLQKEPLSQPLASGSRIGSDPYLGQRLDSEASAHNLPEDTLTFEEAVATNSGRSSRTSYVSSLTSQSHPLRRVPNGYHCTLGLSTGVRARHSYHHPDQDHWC
Sequence of rat α1B+β1b calcium channel (N-type calcium channel) (P54283 whole entry, chain 2 of 2): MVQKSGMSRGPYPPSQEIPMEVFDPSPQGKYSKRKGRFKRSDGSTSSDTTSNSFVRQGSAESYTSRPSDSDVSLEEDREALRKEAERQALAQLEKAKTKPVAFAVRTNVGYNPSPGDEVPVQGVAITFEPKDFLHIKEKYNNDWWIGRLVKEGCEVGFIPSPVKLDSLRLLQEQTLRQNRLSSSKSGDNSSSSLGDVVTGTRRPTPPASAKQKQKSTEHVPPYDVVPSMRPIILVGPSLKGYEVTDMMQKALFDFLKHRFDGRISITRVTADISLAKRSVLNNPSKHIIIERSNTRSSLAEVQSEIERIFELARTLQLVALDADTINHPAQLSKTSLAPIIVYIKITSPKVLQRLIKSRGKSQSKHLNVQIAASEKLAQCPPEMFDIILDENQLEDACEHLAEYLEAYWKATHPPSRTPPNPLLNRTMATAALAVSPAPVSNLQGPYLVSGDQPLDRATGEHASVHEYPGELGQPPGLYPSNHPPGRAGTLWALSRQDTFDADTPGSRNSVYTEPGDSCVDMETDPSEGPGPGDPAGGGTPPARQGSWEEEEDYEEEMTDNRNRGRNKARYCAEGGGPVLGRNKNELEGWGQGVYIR

B1: full-length chicken α2δ-1 calcium channel subunit (other)
chain: HSSEGPFPSPTTIKSWVDKMQEDLITLARTASGVEQLAAIYLKNKDLYTVEANNPRQLVEIAARDIEKLLSNRSKALVRLAKEAEKYQASHQWRDEFGNNDIIYYNAKDDQNDPEKNDTESGSQRIRPVFEEDPVFRRQTSYQHAAVHIPTDIYEGSTIVLNELNWTAALDDVFKRNREEDPTLLWQVFGSATGLARYYPASPWVDNSRTPNKIDLYDVRRRPWYIQGAASPKDMLILVDASGSVSGLTLKLIRTSVIEMLETLSDDDFVNVVSFNNNAQNVSCFNHLVQANVRNKKKLKEAVDKISAKGITDYKKGFSYAFEQLLNHSVSRANCNKIIMLFTDGGEERAQEIFHKYNEDKKVRVFTFSVGQHNYDKGPIQWMACENKGYYYEIPSIGAIRINTQEYLDVLGRPMVLAGEKAKQVQWTNVYLDALELGLVITGTLPVFNLTKEQNGKINQLILGVMGVDVSLEDIKKLTPRFTLCPNGYYFAIDPNGYVLLHPNLQPKNPKSQEPVTLDFLDAELENDIKVEIRKKMIDGESGEKTFETLVKSQDERYIDKGNRTYTWTAVNGTDYSLALVLPSYSFYYIKAKIEEPITQARLEIKKDSETLKIDHFDEAGYTFIAPREYCTDVKKSENNTEFLLNFNEFIDRNTPSSPSCNTDMVIRVLLDAGFTNELAQNYWSKLYLDGVVAQFVVTDGGITRVFPKRAGEDWLENAETYEVSFYKRSLDNDNYIFTAPYYNKSGANSYESGIMVSKAVEITINGKLLKPAVVGIKIDAMKWMENFTTTTIKSLCNSEICGCEKNSMHVDCVILDDGGFLLMSNRDEYTHQIGRFFGEIDPGLMRNLINMSLYAFNKSYDYQSVCDPEEEPKQGAGLRSAYVPTIADILQLGWWASAAAWSILQQLFLSLTFPRFLEAADMEDDDFSTALPKTSCITEQTQYFFENDDKSFIGIVDCINCSRLYHAEKISNTNLVFIISDSQLLCRSCDPKPLMQAEKPDEGPNPCEMVKQPRYRKGPDVCFDEAKQEDSADCGGASGLSPSLWSMVGIQLVLLWLLSGSRHYQL
  current density (Ipeak/cell capacitance), whole-cell patch clamp, fold increase on coexpression: ~10 fold
